The record followed here is publication PMC6797743, “Dual self-assembly of supramolecular peptide nanotubes to provide stabilisation in water” (Nature Communications, 2019).

This series concerns the molecule itself. The series is described as follows: static light scattering (SLS); conjugates in water, 0.1-3.0 mg mL^-1, filtered (0.45 um PTFE); before and after 1 h of sonication (1 h and 3 days of standing); Nagg = molecular weight of the aggregate / molecular weight of the unimer; length = Nagg x 0.5 nm.

[ ]: non-standard residue; d: D form. pDMA = poly(N,N-dimethylacrylamide) hydrophilic homopolymer (2)

The stoichiometry N is a count of units in the complex or per binding partner.

B1: CP-(pDMA)2 (4), cyclic peptide-hydrophilic polymer conjugate (peptide)
peptide: cyclo([dL]K(pDMA)[dL]W[dL]K(pDMA)[dL]W)
notes: cyclo(D-Leu-Lys-D-Leu-Trp)2, printed in three-letter code; designed cyclic octapeptide of alternating D and L residues (cyclic peptide 10); the same CP as in m1; also called control conjugate; fully hydrophilic control conjugate
On to B1, for which the “stoichiometry N” value came out at 25.
